Earlier results on 1 substance are cited in publication PMC9179313.

As usually defined, the pKd is the Kd on a negative log10 scale, so that one unit is a factor of ten.

This data set addresses ICAM1 (Homo sapiens) (UniProt P05362).

pKd: −log10 of the molar value. Values joined by “and” are separate entries in the source; they are usually repeats but may differ in a detail not shown here. Identical values can stand only once.

Chain of ICAM1 (Homo sapiens) (P05362 28-480): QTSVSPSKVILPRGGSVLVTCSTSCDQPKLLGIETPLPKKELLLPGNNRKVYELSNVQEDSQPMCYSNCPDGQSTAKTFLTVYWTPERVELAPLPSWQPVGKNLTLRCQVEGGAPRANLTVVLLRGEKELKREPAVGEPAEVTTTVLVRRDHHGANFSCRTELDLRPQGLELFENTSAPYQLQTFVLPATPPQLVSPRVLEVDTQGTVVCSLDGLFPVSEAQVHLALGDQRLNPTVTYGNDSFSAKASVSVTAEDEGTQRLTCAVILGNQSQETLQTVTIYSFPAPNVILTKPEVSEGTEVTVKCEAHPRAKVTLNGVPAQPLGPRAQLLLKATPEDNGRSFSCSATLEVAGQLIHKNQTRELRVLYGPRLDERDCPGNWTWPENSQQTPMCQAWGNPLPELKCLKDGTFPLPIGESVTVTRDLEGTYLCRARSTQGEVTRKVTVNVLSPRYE
Chain of LFA1 (integrin alpha-L beta-2) (P20701 26-1090): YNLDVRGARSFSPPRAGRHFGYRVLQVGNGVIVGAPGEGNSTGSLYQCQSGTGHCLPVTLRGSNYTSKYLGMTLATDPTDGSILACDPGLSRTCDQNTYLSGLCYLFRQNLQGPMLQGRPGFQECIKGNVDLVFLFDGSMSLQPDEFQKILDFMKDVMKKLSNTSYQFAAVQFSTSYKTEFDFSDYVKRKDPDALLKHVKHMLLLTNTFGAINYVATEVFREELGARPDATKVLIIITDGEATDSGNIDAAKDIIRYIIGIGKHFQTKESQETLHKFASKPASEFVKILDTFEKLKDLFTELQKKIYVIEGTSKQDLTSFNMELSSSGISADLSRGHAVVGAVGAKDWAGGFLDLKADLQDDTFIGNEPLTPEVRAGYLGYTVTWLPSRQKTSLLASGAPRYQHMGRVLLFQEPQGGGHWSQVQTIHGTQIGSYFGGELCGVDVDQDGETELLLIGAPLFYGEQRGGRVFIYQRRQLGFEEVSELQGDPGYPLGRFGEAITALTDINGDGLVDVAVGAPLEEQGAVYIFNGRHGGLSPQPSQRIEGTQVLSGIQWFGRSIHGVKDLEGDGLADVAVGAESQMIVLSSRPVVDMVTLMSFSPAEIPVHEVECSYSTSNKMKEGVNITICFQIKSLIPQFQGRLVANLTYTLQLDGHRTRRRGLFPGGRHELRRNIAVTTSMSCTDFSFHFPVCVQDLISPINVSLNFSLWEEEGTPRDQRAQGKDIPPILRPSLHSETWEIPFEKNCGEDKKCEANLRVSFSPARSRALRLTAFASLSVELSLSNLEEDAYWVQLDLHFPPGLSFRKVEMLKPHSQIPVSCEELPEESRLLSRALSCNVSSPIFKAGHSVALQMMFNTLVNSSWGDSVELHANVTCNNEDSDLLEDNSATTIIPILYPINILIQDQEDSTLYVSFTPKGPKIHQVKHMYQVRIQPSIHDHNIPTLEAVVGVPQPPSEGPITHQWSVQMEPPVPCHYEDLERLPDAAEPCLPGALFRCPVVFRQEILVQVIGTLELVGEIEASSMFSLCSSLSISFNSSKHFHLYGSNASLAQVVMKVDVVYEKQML
Chain of LFA1 (integrin alpha-L beta-2) (P05107 23-700, further chain): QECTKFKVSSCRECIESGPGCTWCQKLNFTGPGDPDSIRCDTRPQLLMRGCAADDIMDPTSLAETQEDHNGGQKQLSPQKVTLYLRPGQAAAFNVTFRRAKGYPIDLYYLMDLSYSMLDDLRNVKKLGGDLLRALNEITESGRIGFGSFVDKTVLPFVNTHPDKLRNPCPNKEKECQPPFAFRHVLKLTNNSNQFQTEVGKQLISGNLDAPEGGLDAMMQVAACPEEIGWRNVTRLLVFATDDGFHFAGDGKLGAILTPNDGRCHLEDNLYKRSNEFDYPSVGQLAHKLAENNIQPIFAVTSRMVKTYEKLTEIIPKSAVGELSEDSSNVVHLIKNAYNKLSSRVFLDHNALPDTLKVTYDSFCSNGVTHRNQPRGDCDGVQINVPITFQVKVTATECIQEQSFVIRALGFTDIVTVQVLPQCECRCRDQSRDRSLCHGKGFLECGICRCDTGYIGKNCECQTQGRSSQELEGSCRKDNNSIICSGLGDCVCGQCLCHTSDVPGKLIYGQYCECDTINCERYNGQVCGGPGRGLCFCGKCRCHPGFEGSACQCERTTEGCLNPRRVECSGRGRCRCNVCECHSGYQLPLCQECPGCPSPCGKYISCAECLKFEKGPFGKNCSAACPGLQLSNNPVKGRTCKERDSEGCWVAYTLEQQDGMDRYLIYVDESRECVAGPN

Take “LFA1 (integrin alpha-L beta-2) (from UniProt P20701)”: the pKd was 4.59 and 4.44.
